Columns and labels:
[1] = test system: NA-17: N2 from A/South_Australia/34/2019
[2] = test system: H7N3_NA_A_Ck_Ja_PAVX17170_2017
[3] = test system: NA-16: N2 from A/Switzerland/8060/2017
[4] = test system: NA-19: N2 from A/Tanzania/205/2010 (82-469) S245NS247T
[5] = test system: NA-18: N2 from A/Hong-Kong/2671/2019
[6] = test system: H5N6_NA_A_Hangzhou_01_2021
[7] = test system: NA-1: N1 from A/Vietnam/1203/2004
[8] = test system: NA-5: N2 from A/Tanzania/205/2010

B1: FNI9-v13.8 (protein)
heavy chain: QVQLVQSGAEVKEPGSSVTVSCKASGGSFNNQAISWVRQAPGQGLEWMGGIFPISGTPTSAQRFQGRVTFTADESTTTVYMDLSSLRSDDTAVYYCARAGSDYFNRDLGWENYYFASWGQGTLVTVSS
light chain: EIVMTQSPATLSVSPGERATLSCRASRSVSSNLAWYQQKPGQAPRLLIYDASTRATGFSARFAGSGSGTEFTLTISSLQSEDSAIYYCQQYNNWPPWTFGQGTKVEIK
MUNANA vs NA antigens | D [1]: 80455 µg/mL | ELLA vs pseudoviruses | H [2]: 11.57 µg/mL | ELLA vs pseudoviruses | M (H7N9_NA_A_Anhui_1_2013): 1.701 µg/mL | MUNANA vs NA antigens | C [3]: 834.9 µg/mL | MUNANA vs NA antigens | F [4]: 1073 µg/mL | MUNANA vs NA antigens | E [5]: 832.7 µg/mL | ELLA vs pseudoviruses | K (H7N7_NA_A_Ck_621572_03): 53.76 µg/mL | ELLA vs pseudoviruses | J [6]: 2.03 µg/mL | MUNANA vs NA antigens | A [7]: 30.6 µg/mL | MUNANA vs NA antigens | B [8]: 158.3 µg/mL
